Measured values published in US20060160201A1, “Three-dimensional structures of HDAC9 and Cabin1 and compound structures and methods related thereto” (priority 2003, published 2006).

T1: MEF2B (1-93)/DNA complex (Homo sapiens, UniProt Q02080)
T1 construct: MEF2B (1-93) was expressed and purified similarly to the MEF2B/HDAC9 fusion protein; made in house
T1 sequence (Q02080 1-93): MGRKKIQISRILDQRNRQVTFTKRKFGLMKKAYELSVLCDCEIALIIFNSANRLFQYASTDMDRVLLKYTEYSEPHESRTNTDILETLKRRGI

T2: Human MEF2B (residues 1-93 of SEQ ID NO:2) (human, UniProt Q02080 1-93)
T2 construct: Symmetric homodimer; In ITC it was used free; For the crystals it was expressed as a fusion with Cabin1 (cleaved with PreScission protease) or with MITR; also called MEF2B (1-93); MADS-box/MEF2S domain
T2 sequence: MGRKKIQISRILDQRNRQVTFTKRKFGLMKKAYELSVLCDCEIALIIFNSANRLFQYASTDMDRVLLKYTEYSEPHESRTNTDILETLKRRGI

T3: GST-MEF2B (Homo sapiens, UniProt Q02080)
T3 construct: made in house; host or cells: E. coli DH5α
T3 sequence (Q02080 1-365): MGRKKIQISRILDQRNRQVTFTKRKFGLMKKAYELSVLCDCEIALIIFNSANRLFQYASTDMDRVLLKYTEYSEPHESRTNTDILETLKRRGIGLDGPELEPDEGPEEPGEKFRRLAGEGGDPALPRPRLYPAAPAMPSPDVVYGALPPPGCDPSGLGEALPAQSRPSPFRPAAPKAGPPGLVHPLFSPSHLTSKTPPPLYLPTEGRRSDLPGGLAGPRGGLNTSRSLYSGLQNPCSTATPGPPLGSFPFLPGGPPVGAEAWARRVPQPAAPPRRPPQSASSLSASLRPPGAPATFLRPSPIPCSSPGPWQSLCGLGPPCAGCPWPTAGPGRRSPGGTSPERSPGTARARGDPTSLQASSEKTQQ


What was measured:
[1] = target: T1, MEF2B (1-93)/DNA complex; experiment: Electrophoresis mobility shift assay (EMSA) of ternary HDAC4/MEF2/DNA complex formation; assay type: binding; conditions: approx. 20 μM protein
Protocol: MEF2B (1-93) was expressed and purified similarly to the MEF2B/HDAC9 fusion protein. […] All HDAC4 mutants were generated by Quickchange mutation kit (Stratagene) and purified similarly to the wild type proteins. […] EMSA was performed in a buffer of 20 mM Hepes (pH 7.7), 300 mM NaCl, 1 mM DTT, and 10% glycerol. The concentration of DNA was kept at 20 μM, approximately 40 μM of MEF2B was used in all binding reactions except the DNA control (Lane 1 in FIG. 6A). […] The binding reactions were analyzed on a 4-20% gradient native PAGE in TBE and stained with ethidium bromide.
Structure-guided mutational analyses of HDAC4 was performed.

[2] = target: T2, Human MEF2B (residues 1-93 of SEQ ID …); experiment: EMSA super shift of the preformed MEF2B (1-93)/DNA complex, native PAGE stained with ethidium bromide; the lower strip shows the HDAC4(155-220) protein loaded
[3] = target: T3, GST-MEF2B; experiment: In vitro binding assay of Cabin1 mutants on GST-MEF2B beads; conditions: 35S-labeled Cabin1 (2144-2220) mutants
Protocol: In vitro binding assay of Cabin1 mutants. The glutathione S-transferase(GST)-MEF2B fusion was expressed in E. coli DH5α and purified as previously described (Youn et al., 1999). [^35S]-labeled Cabin1 or its mutants was synthesized in vitro using pSG-Cabin1 (2144-2220) or the corresponding mutant plasmid (generated by Stratagene site-mutagenesis Kit) in a coupled transcription-translation system (TNT kit, Promega). Roughly equal amounts of wild type and mutant proteins were incubated with a 50% slurry of GST-MEF2B immobilized on glutathione-sepharose beads in 200 to 300 μL HEMG binding buffer (40 mM HEPES-[pH 7.8], 50 mM KCl, 5 mM MgCl2, 0.1% Triton X-100, 10% glycerol, 1.5 mM DTT, protease inhibitors [Boehringer-Mannheim], and 0.5 mg/mL bovine serum albumin). The beads were washed four times with 1 mL (each time) HEMG buffer. Bound proteins were eluted in 30 μL 50 mM Tris-Cl (pH 7.4) containing 15 mM glutathione, resolved by SDS-PAGE and visualized by autoradiography. The control was carried out with the wild type Cabin1 (2144-2220) and beads without immobilized GST-MEF2B (data not shown).

| Molecule | effect of mutation on binding to the MEF2B (1-93)/DNA complex [1] | binding result [2] | binding affinity of Cabin1 mutant to MEF2B [3] |
| --- | --- | --- | --- |
| HDAC4 (155-220) Leu175Ala mutant (other, Made and purified like the wild type (pET28a, nickel agarose)) LKNKEKGKESAVASTEVKMKAQEFVLNKKKALAHRNLNHCISSDPRYWYGKTQHSSLDQSSPPQSG | disrupted the binding | no binding |  |
| HDAC4 (155-220) Leu175Lys mutant (other, Made and purified like the wild type (pET28a, nickel agarose)) LKNKEKGKESAVASTEVKMKKQEFVLNKKKALAHRNLNHCISSDPRYWYGKTQHSSLDQSSPPQSG | disrupted the binding | no binding |  |
| HDAC4 (155-220) Val179Ala mutant (other, Made and purified like the wild type (pET28a, nickel agarose)) LKNKEKGKESAVASTEVKMKLQEFALNKKKALAHRNLNHCISSDPRYWYGKTQHSSLDQSSPPQSG | disrupted the binding | no binding |  |
| V171K (other, also called Val171Lys; not shown: Vector-derived His tag and linker from pET28a (the protein was purified on nickel chelated agarose)) LKNKEKGKESAVASTEKKMKLQEFVLNKKKALAHRNLNHCISSDPRYWYGKTQHSSLDQSSPPQSG |  | no binding |  |
| Leu72Ala: Cabin1 (2144-2220) mutant, Leu2172 to Ala (protein) FPPEITVTPPTPTLLSPKGSISEETKQKAKSAILSAQSAANVRKESLCQPALEVLETSSQESSLESETDEDDDYMDI |  |  | either completely abolished or significantly reduced |
| Leu72Trp: Cabin1 (2144-2220) mutant, Leu2172 to Trp (protein, UniProt Q9Y6J0 2144-2220, looked up, variant L2172W) FPPEITVTPPTPTLLSPKGSISEETKQKWKSAILSAQSAANVRKESLCQPALEVLETSSQESSLESETDEDDDYMDI |  |  | either completely abolished or significantly reduced |
| Leu72Lys: Cabin1 (2144-2220) mutant, Leu2172 to Lys (protein, UniProt Q9Y6J0 2144-2220, looked up, variant L2172K) FPPEITVTPPTPTLLSPKGSISEETKQKKKSAILSAQSAANVRKESLCQPALEVLETSSQESSLESETDEDDDYMDI |  |  | either completely abolished or significantly reduced |
| Ile76Ala: Cabin1 (2144-2220) mutant, Ile2176 to Ala (protein, UniProt Q9Y6J0 2144-2220, looked up, variant I2176A) FPPEITVTPPTPTLLSPKGSISEETKQKLKSAALSAQSAANVRKESLCQPALEVLETSSQESSLESETDEDDDYMDI |  |  | either completely abolished or significantly reduced |
| Gln70Ala: Cabin1 (2144-2220) mutant outside the Cabin1/MEF2 interface (protein) FPPEITVTPPTPTLLSPKGSISEETKAKLKSAILSAQSAANVRKESLCQPALEVLETSSQESSLESETDEDDDYMDI |  |  | little effect |
| Gln70Trp: Cabin1 (2144-2220) mutant outside the Cabin1/MEF2 interface (protein) FPPEITVTPPTPTLLSPKGSISEETKWKLKSAILSAQSAANVRKESLCQPALEVLETSSQESSLESETDEDDDYMDI |  |  | little effect |
| Val171Lys: Val171Lys mutant of HDAC4 (155-220) (protein, left off: small tags and cut ends) LKNKEKGKESAVASTEKKMKLQEFVLNKKKALAHRNLNHCISSDPRYWYGKTQHSSLDQSSPPQSG | diminished the binding of MEF2 |  |  |
